The results in this text go back to patent US7510715.

Read-outs that look alike come from different tables or passages of the source.

Experiment [1] deals with human CD4 on PM1 cells (human) (UniProt P01730). The experiment can be described thus: flow cytometry, FITC-Leu 3a on PM1 cells, no treatment; isotype control subtracted. For orientation: Flow cytometry measures light scatter and fluorescence of single cells or particles in a stream.
For experiment [2] the target is unchanged.
Experiment [3] has the same target. The experiment can be described thus: flow cytometry, FITC-Leu 3a on PM1 cells after RANTES + MIP-1β (1 µg/mL each, 2 hours at 37° C.); isotype control subtracted.
Experiment [4] concerns the target human CCR5 on cells (CEM.NKR-CCR5 transfectants; PM1 T cells; PBMCs; macrophages) (human) (UniProt P51681).
Experiment [5] has the same target. As to the kind of experiment: flow cytometry, FITC-2D7 on PM1 cells after RANTES + MIP-1β (1 µg/mL each, 2 hours at 37° C.); isotype control subtracted.
The target is the same in experiment [6]. As to the kind of experiment: flow cytometry, FITC-2D7 on PM1 cells, no treatment; isotype control subtracted.
For experiment [7] the target is unchanged. As to the kind of experiment: cell-based or functional assay.

Turning to “FITC-conjugated Leu 3a (anti-hCD4; Becton Dickinson) (antibody)”, the figures for the ΔMFC in experiment [1], in experiment [2] and in experiment [3] were 112 ΔMFC, 105 ΔMFC and 109 ΔMFC, respectively.
“FITC-conjugated 2D7 (anti-CCR5; Pharmingen) (antibody)”: the ΔMFC in experiment [4] is 104 ΔMFC; in experiment [5] it was 35 ΔMFC; in experiment [6] it was 119 ΔMFC.
In experiment [7], “recombinant Plasmodium falciparum cyclophilin (PfCyp19) (enzyme)” gave an Inhibition, % of 12E1(JR-FL)/PM1 fusion, P falciparum cyclophilin at 10 µg/mL of 0%.
